Article PMC9482650, “Quantitative fragmentomics allow affinity mapping of interactomes” (Nature Communications, 2022)

B1: KCNA6, P17658 (peptide)
chain: YAEKRMLTEV

Each binder was assayed against T1, CARD11, Q9BXL7 (assay: holdup assay). Settings: plain residues with an end cap or a label only (N-terminal biotin on a linker: ado-ado).
T1 sequence (Q9BXL7 662-765, limits assumed, looked up): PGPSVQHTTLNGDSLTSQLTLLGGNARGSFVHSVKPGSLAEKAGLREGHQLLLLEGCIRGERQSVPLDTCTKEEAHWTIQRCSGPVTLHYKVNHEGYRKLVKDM
Design: key: below the threshold = too weak to quantify, mostly under pKd 3.1 to 4

Row | Binder | pKd
1 | B1 | below the threshold

Each binder was assayed against CASK, O14936 (assay: holdup assay). Settings: plain residues with an end cap or a label only (N-terminal biotin on a linker: ado-ado).
Design: key: below the threshold = too weak to quantify, mostly under pKd 3.1 to 4

CASK, O14936, sequence (O14936 487-570): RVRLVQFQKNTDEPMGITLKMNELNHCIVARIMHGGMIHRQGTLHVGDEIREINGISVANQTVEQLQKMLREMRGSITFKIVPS

Row | Binder | pKd
2 | B1 | below the threshold

What follows are binders tested against DLG2_2, Q15700 (assay: holdup assay). Settings: plain residues with an end cap or a label only (N-terminal biotin on a linker: ado-ado).
Design: key: below the threshold = too weak to quantify, mostly under pKd 3.1 to 4

DLG2_2, Q15700, sequence (Q15700 189-283): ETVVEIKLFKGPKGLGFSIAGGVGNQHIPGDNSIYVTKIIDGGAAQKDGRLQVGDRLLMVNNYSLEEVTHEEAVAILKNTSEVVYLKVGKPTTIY

Row | Binder | pKd
3 | B1 | 4.15

The binders below were run against FRMPD2_1, Q68DX3 (assay: holdup assay). Settings: plain residues with an end cap or a label only (N-terminal biotin on a linker: ado-ado).
Design: key: below the threshold = too weak to quantify, mostly under pKd 3.1 to 4

FRMPD2_1, Q68DX3, sequence (Q68DX3 770-861): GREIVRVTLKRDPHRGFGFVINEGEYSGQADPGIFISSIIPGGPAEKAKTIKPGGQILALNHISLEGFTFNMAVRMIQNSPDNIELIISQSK

Row | Binder | pKd
4 | B1 | below the threshold

Each binder was assayed against GOPC, Q9HD26 (assay: holdup assay). Settings: plain residues with an end cap or a label only (N-terminal biotin on a linker: ado-ado).
Design: key: below the threshold = too weak to quantify, mostly under pKd 3.1 to 4

Row | Binder | pKd
5 | B1 | 3.74

What follows are binders tested against T2, GRIP1_2, Q9Y3R0 (assay: holdup assay). Settings: plain residues with an end cap or a label only (N-terminal biotin on a linker: ado-ado).
T2 sequence (Q9Y3R0 145-248, limits assumed, looked up): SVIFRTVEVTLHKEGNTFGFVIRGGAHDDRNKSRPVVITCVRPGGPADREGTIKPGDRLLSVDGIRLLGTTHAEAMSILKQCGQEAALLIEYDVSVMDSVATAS
Design: key: below the threshold = too weak to quantify, mostly under pKd 3.1 to 4

Row | Binder | pKd
6 | B1 | below the threshold

The binders below were run against GRIP2_3, Q9C0E4 (assay: holdup assay). Settings: plain residues with an end cap or a label only (N-terminal biotin on a linker: ado-ado).
Design: key: below the threshold = too weak to quantify, mostly under pKd 3.1 to 4

GRIP2_3, Q9C0E4, sequence (Q9C0E4 238-339): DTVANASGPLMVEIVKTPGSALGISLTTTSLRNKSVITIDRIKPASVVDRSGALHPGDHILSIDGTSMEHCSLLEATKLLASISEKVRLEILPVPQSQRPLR

Row | Binder | pKd
7 | B1 | below the threshold

Each binder was assayed against GRIP2_4, Q9C0E4 (assay: holdup assay). Settings: plain residues with an end cap or a label only (N-terminal biotin on a linker: ado-ado).
Design: key: below the threshold = too weak to quantify, mostly under pKd 3.1 to 4

GRIP2_4, Q9C0E4, sequence (Q9C0E4 446-548): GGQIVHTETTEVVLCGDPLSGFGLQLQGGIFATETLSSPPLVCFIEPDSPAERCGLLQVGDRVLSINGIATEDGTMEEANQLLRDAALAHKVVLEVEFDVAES

Row | Binder | pKd
8 | B1 | below the threshold

What follows are binders tested against HTRA1, Q92743 (assay: holdup assay). Settings: plain residues with an end cap or a label only (N-terminal biotin on a linker: ado-ado).
Design: key: below the threshold = too weak to quantify, mostly under pKd 3.1 to 4

HTRA1, Q92743, sequence (Q92743 360-477): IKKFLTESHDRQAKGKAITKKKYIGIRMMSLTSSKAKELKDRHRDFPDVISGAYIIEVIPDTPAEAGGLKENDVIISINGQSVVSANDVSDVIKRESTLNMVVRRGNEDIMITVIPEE

Row | Binder | pKd
9 | B1 | 3.91

What follows are binders tested against T3, HTRA4, P83105 (assay: holdup assay). Settings: plain residues with an end cap or a label only (N-terminal biotin on a linker: ado-ado).
T3 sequence (P83105 378-476, limits assumed, looked up): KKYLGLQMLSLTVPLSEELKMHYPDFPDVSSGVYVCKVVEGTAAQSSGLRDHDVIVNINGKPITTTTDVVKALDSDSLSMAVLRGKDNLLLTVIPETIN
Design: key: below the threshold = too weak to quantify, mostly under pKd 3.1 to 4

Row | Binder | pKd
10 | B1 | 4.38

Each binder was assayed against Inadl_5, Q8NI35 (assay: holdup assay). Settings: plain residues with an end cap or a label only (N-terminal biotin on a linker: ado-ado).
Design: key: below the threshold = too weak to quantify, mostly under pKd 3.1 to 4

Inadl_5, Q8NI35, sequence (Q8NI35 673-780): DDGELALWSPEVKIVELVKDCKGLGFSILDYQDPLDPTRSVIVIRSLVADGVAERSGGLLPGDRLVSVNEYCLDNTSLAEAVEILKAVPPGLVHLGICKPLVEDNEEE

Row | Binder | pKd
11 | B1 | below the threshold

These binders were tested against Inadl_6, Q8NI35 (assay: holdup assay). Settings: plain residues with an end cap or a label only (N-terminal biotin on a linker: ado-ado).
Design: key: below the threshold = too weak to quantify, mostly under pKd 3.1 to 4

Inadl_6, Q8NI35, sequence (Q8NI35 1058-1167): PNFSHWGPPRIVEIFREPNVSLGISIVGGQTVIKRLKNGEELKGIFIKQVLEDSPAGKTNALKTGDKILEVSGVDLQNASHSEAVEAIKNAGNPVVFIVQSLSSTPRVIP

Row | Binder | pKd
12 | B1 | below the threshold

The binders below were run against LDB3, O75112 (assay: holdup assay). Settings: plain residues with an end cap or a label only (N-terminal biotin on a linker: ado-ado).
Design: key: below the threshold = too weak to quantify, mostly under pKd 3.1 to 4

LDB3, O75112, sequence (O75112 1-94): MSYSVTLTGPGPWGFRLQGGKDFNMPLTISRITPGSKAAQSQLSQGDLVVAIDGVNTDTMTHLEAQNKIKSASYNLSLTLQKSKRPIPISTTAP

Row | Binder | pKd
13 | B1 | below the threshold

These binders were tested against LNX1_3, Q8TBB1 (assay: holdup assay). Settings: plain residues with an end cap or a label only (N-terminal biotin on a linker: ado-ado).
Design: key: below the threshold = too weak to quantify, mostly under pKd 3.1 to 4

LNX1_3, Q8TBB1, sequence (Q8TBB1 500-596): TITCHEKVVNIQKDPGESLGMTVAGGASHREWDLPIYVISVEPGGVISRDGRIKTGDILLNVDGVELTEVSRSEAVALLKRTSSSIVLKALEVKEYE

Row | Binder | pKd
14 | B1 | below the threshold

The binders below were run against MAGI2_3, Q86UL8 (assay: holdup assay). Settings: plain residues with an end cap or a label only (N-terminal biotin on a linker: ado-ado).
Design: key: below the threshold = too weak to quantify, mostly under pKd 3.1 to 4

MAGI2_3, Q86UL8, sequence (Q86UL8 600-682): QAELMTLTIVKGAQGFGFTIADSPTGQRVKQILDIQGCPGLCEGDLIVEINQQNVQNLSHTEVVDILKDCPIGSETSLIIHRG

Row | Binder | pKd
15 | B1 | below the threshold

What follows are binders tested against MAGI2_4, Q86UL8 (assay: holdup assay). Settings: plain residues with an end cap or a label only (N-terminal biotin on a linker: ado-ado).
Design: key: below the threshold = too weak to quantify, mostly under pKd 3.1 to 4

MAGI2_4, Q86UL8, sequence (Q86UL8 772-865): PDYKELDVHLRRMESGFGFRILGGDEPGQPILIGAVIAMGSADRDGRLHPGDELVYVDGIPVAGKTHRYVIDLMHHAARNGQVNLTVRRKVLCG

Row | Binder | pKd
16 | B1 | 4.34

Each binder was assayed against MAGI2_5, Q86UL8 (assay: holdup assay). Settings: plain residues with an end cap or a label only (N-terminal biotin on a linker: ado-ado).
Design: key: below the threshold = too weak to quantify, mostly under pKd 3.1 to 4

MAGI2_5, Q86UL8, sequence (Q86UL8 915-1017): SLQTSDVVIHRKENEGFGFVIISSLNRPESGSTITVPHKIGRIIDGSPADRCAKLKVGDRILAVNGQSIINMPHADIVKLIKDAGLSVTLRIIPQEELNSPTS

Row | Binder | pKd
17 | B1 | 4.28

These binders were tested against MAST1, Q9Y2H9 (assay: holdup assay). Settings: plain residues with an end cap or a label only (N-terminal biotin on a linker: ado-ado).
Design: key: below the threshold = too weak to quantify, mostly under pKd 3.1 to 4

MAST1, Q9Y2H9, sequence (Q9Y2H9 962-1065): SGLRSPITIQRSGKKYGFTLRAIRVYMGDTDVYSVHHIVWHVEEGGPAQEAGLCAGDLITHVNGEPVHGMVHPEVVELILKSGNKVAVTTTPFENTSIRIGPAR

Row | Binder | pKd
18 | B1 | 4.65

What follows are binders tested against T4, NHERF3_3, Q5T2W1 (assay: holdup assay). Settings: plain residues with an end cap or a label only (N-terminal biotin on a linker: ado-ado).
T4 sequence (Q5T2W1 238-333, limits assumed, looked up): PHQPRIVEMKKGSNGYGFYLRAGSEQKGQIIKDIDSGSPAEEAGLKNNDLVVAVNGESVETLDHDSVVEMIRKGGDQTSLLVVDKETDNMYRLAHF
Design: key: below the threshold = too weak to quantify, mostly under pKd 3.1 to 4

Row | Binder | pKd
19 | B1 | below the threshold

The binders below were run against T5, NHERF3_4, Q5T2W1 (assay: holdup assay). Settings: plain residues with an end cap or a label only (N-terminal biotin on a linker: ado-ado).
T5 sequence (Q5T2W1 373-468, limits assumed, looked up): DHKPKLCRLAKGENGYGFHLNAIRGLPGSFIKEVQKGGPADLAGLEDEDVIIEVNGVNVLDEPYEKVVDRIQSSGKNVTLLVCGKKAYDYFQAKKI
Design: key: below the threshold = too weak to quantify, mostly under pKd 3.1 to 4

Row | Binder | pKd
20 | B1 | below the threshold

Each binder was assayed against NHERF4_2, Q86UT5 (assay: holdup assay). Settings: plain residues with an end cap or a label only (N-terminal biotin on a linker: ado-ado).
Design: key: below the threshold = too weak to quantify, mostly under pKd 3.1 to 4

NHERF4_2, Q86UT5, sequence (Q86UT5 220-308): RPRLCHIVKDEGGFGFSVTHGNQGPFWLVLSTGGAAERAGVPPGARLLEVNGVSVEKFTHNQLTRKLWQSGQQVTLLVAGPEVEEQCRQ

Row | Binder | pKd
21 | B1 | below the threshold

The binders below were run against T6, PDZD2_2, O15018 (assay: holdup assay). Settings: plain residues with an end cap or a label only (N-terminal biotin on a linker: ado-ado).
T6 sequence (O15018 329-429, limits assumed, looked up): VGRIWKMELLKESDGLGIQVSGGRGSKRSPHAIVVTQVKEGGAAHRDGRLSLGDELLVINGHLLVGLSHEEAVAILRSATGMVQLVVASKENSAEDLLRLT
Design: key: below the threshold = too weak to quantify, mostly under pKd 3.1 to 4

Row | Binder | pKd
22 | B1 | 4.34

Each binder was assayed against PICK1, Q9NRD5 (assay: holdup assay). Settings: plain residues with an end cap or a label only (N-terminal biotin on a linker: ado-ado).
Design: key: below the threshold = too weak to quantify, mostly under pKd 3.1 to 4

PICK1, Q9NRD5, sequence (Q9NRD5 17-115): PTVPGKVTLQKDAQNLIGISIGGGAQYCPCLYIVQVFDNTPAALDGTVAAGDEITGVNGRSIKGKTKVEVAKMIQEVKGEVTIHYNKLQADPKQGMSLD

Row | Binder | pKd
23 | B1 | below the threshold

Each binder was assayed against PTPN3, P26045 (assay: holdup assay). Settings: plain residues with an end cap or a label only (N-terminal biotin on a linker: ado-ado).
Design: key: below the threshold = too weak to quantify, mostly under pKd 3.1 to 4

PTPN3, P26045, sequence (P26045 505-587): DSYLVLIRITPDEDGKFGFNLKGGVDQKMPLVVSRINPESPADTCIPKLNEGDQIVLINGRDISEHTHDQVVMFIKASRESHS

Row | Binder | pKd
24 | B1 | 4.32

The binders below were run against SCRIB_2, Q14160 (assay: holdup assay). Settings: plain residues with an end cap or a label only (N-terminal biotin on a linker: ado-ado).
Design: key: below the threshold = too weak to quantify, mostly under pKd 3.1 to 4

SCRIB_2, Q14160, sequence (Q14160 857-960): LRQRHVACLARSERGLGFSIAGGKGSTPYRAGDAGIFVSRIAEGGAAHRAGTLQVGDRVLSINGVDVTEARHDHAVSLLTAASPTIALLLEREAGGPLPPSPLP

Row | Binder | pKd
25 | B1 | below the threshold

What follows are binders tested against T7, SIPA1L2, Q9P2F8 (assay: holdup assay). Settings: plain residues with an end cap or a label only (N-terminal biotin on a linker: ado-ado).
T7 sequence (Q9P2F8 945-1036, limits assumed, looked up): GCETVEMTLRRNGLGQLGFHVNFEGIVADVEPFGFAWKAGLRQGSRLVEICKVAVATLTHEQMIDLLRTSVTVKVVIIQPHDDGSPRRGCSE
Design: key: below the threshold = too weak to quantify, mostly under pKd 3.1 to 4

Row | Binder | pKd
26 | B1 | below the threshold

These binders were tested against T8, SNTA1, Q13424 (assay: holdup assay). Settings: plain residues with an end cap or a label only (N-terminal biotin on a linker: ado-ado).
T8 sequence (Q13424 82-180, limits assumed, looked up): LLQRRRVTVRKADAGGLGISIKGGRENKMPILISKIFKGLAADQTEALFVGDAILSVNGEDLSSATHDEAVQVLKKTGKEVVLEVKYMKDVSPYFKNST
Design: key: below the threshold = too weak to quantify, mostly under pKd 3.1 to 4

Row | Binder | pKd
27 | B1 | below the threshold

These binders were tested against T9, SNTG1, Q9NSN8 (assay: holdup assay). Settings: plain residues with an end cap or a label only (N-terminal biotin on a linker: ado-ado).
T9 sequence (Q9NSN8 52-150, limits assumed, looked up): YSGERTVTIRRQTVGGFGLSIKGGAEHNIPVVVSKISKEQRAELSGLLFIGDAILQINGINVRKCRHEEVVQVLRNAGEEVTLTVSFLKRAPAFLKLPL
Design: key: below the threshold = too weak to quantify, mostly under pKd 3.1 to 4

Row | Binder | pKd
28 | B1 | 3.57

The binders below were run against T10, TJP3_3, O95049 (assay: holdup assay). Settings: plain residues with an end cap or a label only (N-terminal biotin on a linker: ado-ado).
T10 sequence (O95049 375-456, limits assumed, looked up): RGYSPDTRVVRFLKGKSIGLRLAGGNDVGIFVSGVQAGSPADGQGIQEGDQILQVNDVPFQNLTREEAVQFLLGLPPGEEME
Design: key: below the threshold = too weak to quantify, mostly under pKd 3.1 to 4

Row | Binder | pKd
29 | B1 | below the threshold
